Square brackets hold non-standard residues; d marks the D form. Primed or numbered codes have the meaning given here. Side chains are listed from the residue outwards. * marks the point of attachment. Butanoyl(4-Ph) = O=C(CCCc1ccccc1)*; IR800CW″ = IRDye800CW maleimide; Mpa = O=C(O)CCS
Biological target: MC5R expressed in the kidneys (of the xenograft-bearing mice)
Assay: cell-based or functional assay

Sequence of MC5R expressed in the kidneys (of the xenograft-bearing mice) (P41149 whole entry): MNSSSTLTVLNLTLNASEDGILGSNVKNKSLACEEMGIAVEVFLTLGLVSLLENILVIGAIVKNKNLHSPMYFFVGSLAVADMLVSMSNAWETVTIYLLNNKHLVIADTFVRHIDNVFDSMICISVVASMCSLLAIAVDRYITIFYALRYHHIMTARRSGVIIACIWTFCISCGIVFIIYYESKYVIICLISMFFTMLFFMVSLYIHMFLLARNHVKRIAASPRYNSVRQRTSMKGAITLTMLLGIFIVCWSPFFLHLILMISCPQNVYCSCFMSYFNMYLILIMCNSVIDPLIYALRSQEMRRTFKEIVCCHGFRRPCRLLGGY

fold decrease in renal uptake of MC1RL-800 at 2 hr, with co-injection of 1 nmol/kg MC4R/5R compound (SEQ ID NO:10), compared to control animals: 1.56 fold
B1: 4-phenylbutyryl-His-DPhe-Arg-Trp-Gly-Lys(Mpr-IR800CW)-NH2 (peptide)
peptide: {Butanoyl(4-Ph)}-H[dF]RWGK([Mpa-IR800CW″])-NH2
